Data as given in patent US20230295275A1 (FLAGSHIP PIONEERING INNOVATIONS VI, published 2023).

Columns and labels:
[1] = molecular target: soluble G614 HexaPro spike ectodomain (SARS-CoV-2, UniProt P0DTC2 14-1208)
[2] = molecular target: D614 SARS-CoV-2 spike (SARS-CoV-2, UniProt P0DTC2 14-1208)

Row | Binder | Kd [1] [nM] | Kd [2] [nM]
1 | AB-1 full-length IgG1 (antibody, V domains shown) VH: QMQLVQSGTEVKKPGESLKISCKGSGYGFITVWIGWVRQMPGKGLEWMGIIYPGDSETRYSPSFQGQVTISADKSINTAYLQWSSLKASDTAIYYCAGGSGISTPMDVWGQGTTVTVSS VL: not shown | 3.39 | 1.66
2 | AB-2 full-length IgG1 (antibody, V domains shown) VH: QMQLVQSGTEVKKPGESLKISCKGSGSGTITVWIGWVRQMPGKGLEWMGIIYPGDSETRYSPSFQGQVTISADKSINTAYLQWSSLKASDTAIYYCAGGSGISTPMDVWGQGTTVTVSS VL: not shown | 2.79 | 1.48
3 | AB-4 full-length IgG1 (antibody, V domains shown) VH: QMQLVQSGTEVKKPGESLKISCKGSGSGFITYWIGWVRQMPGKGLEWMGIIYPGDSETRYSPSFQGQVTISADKSINTAYLQWSSLKASDTAIYYCAGGSGIHTPMDVWGQGTTVTVSS VL: not shown | 2.71 | 1.72
4 | AB-3 full-length IgG1 (antibody, V domains shown) VH: QMQLVQSGTEVKKPGESLKISCKGSGSGFITVWIGWVRQMPGKGLEWMGIIYPGDSETRYSPSFQGQVTISADKSINTAYLQWSSLKASDTAIYYCAGGSGISTPMDVWGQGTTVTVSS VL: not shown | 1.74 | 0.907
